Values of other authors as cited in publication PMC7290323.

Target: GPP130 luminal domain (Homo sapiens) (UniProt O00461)
Sequence of UniProt O00461 (O00461 34-696): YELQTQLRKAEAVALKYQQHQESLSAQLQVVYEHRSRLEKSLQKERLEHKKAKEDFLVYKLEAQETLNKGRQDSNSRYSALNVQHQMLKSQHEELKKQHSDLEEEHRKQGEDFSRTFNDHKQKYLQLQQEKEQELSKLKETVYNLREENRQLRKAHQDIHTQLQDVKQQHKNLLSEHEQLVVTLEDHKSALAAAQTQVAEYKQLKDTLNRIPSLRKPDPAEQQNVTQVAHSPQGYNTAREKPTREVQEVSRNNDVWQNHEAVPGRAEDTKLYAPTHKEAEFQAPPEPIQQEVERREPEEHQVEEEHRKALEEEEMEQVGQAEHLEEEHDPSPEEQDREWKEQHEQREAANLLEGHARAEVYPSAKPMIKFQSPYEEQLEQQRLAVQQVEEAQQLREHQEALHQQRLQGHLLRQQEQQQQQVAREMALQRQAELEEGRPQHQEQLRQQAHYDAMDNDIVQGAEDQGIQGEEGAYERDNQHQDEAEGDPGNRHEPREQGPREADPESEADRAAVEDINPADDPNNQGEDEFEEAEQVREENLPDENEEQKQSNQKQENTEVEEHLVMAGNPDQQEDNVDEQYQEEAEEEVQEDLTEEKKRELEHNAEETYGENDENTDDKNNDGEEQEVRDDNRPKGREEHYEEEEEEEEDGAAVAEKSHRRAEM

Shiga toxin 1 B subunit (STxB/STx1B) (from UniProt Q32GM0)
Kd: 150 nM
